For the test, the target named is T1, Arkadia SUMO-binding domain (residues 285-416), wild type (mouse, UniProt Q99ML9 285-416).
T1 construct: it holds SIM1, SOB and SIM2; Subcloned into pGEX-TEV/N (TEV site after the thrombin site); also called Arkadia-WT 285-416; SIM domain of Arkadia
T1 sequence (looked up): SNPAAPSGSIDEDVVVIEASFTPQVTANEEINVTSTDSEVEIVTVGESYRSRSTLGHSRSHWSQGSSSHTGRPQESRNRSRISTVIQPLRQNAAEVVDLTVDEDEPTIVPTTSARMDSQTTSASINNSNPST
As to the kind of experiment: ITC; iTC200; ITC buffer (50 mM Tris/HCl pH 7.5, 150 mM NaCl, 2 mM DTT, 5% glycerol), 30 °C; 20-30 injections up to a twofold to threefold molar excess; which partner was in the syringe is not told; single titrations and their mean. The conditions noted are these: both partners purified.

Values joined by “and” are separate entries in the source; they are usually repeats but may differ in a detail not shown here. Equal entries are not always repeated.

B1: linear SUMO1-capped SUMO2 trimer (SUMO1-ΔN15 - 2xSUMO2-ΔN11) (other)
chain: KKEGEYIKLKVIGQDSSEIHFKVKMTTHLKKLKESYCQRQGVPMNSLRFLFEGQRIADNHTPKELGMEEEDVIEVYQEQTRSTENNDHINLKVAGQDGSVVQFKIKRHTPLSKLMKAYCERQGLSMRQIRFRFDGQPINETDTPAQLEMEDEDTIDVFQQQTRSTENNDHINLKVAGQDGSVVQFKIKRHTPLSKLMKAYCERQGLSMRQIRFRFDGQPINETDTPAQLEMEDEDTIDVFQQQTGG
In general, Kd refers to the concentration at which binding is half-saturated. A high value points to a looser complex. Consider B1, for which the Kd is 3500 nM and 2100 nM and 2300 nM and 1500 nM.

B2: linear SUMO1-capped SUMO2 dimer (SUMO1-ΔN15 - SUMO2-ΔN11) (other)
chain: KKEGEYIKLKVIGQDSSEIHFKVKMTTHLKKLKESYCQRQGVPMNSLRFLFEGQRIADNHTPKELGMEEEDVIEVYQEQTRSTENNDHINLKVAGQDGSVVQFKIKRHTPLSKLMKAYCERQGLSMRQIRFRFDGQPINETDTPAQLEMEDEDTIDVFQQQTGG
For the molecule B2, the dissociation constant Kd was 1400 nM and 3800 nM and 2100 nM.

For the origin of these results see publication PMC6695498, “Arkadia/RNF111 is a SUMO-targeted ubiquitin ligase with preference for substrates marked with SUMO1-capped SUMO2/3 chain” (Nature Communications, 2019).
